Laboratory results taken from patent US20210063414A1, “METHODS FOR PREVENTING AND/OR TREATING BONE LOSS CONDITIONS BY MODULATING IRISIN” (Dana-Farber Cancer Institute, Inc., priority 2018, published 2021).

Assays:
Assay in all cases: Crosslinking/co-immunoprecipitation/mass spectrometry (TMT quantitative proteomics) to identify irisin receptors
Type in all cases: binding
[1] = molecular target: T1, MLO-Y4 cell surface proteins (Mus musculus, UniProt E9Q0C6); conditions: co-precipitated protein Gm14569 (E9Q0C6_MOUSE)
T1 construct: endogenous in cells; host or cells: MLO-Y4
Protocol: (§1) MLO-Y4 cells were seeded on 30×150 mm type-I collagen coated dishes as described in cell culture experiment. At 60% cell density, medium was switched to FreeStyle™ 293 Expression medium. After 4 hours incubation, the cells were chilled on ice for 10 minutes, followed by treatment of 10 nM his-tag irisin or his-tag adipsin for 20 minutes. The cells were then incubated with 1.5 mM DTSSP for 30 minutes on ice to do cross-linking, after washing with 15 ml cold PBS twice. The cross-linking was quenched by addition of a final concentration of 20 mM Tris-pH 7.5. The cells were then harvested and homogenized in 1 ml RIPA buffer containing proteaseinhibitor cocktailand phosphatase-inhibitor cocktail. Whole-cell lysates were homogenized by 10 times passages through a 22G needle fitted to a 3 ml syringe. Homogenized samples were rotated gently in cold room for 20 minutes followed by 15,000×g centrifugation for 10 minutes. After addition of a final concentration of 10 mM imidazole, supernatants were incubated with 100 μl Ni-NTA agarose for 1 hour. After centrifugation at 500×g for 1 minute, the supernatants were aspirated and 1 ml cold RIPA buffer containing 10 mM imidazole were added to the agarose. After 10 minutes rotation in cold room, the supernatants were aspirated and 1 ml cold RIPA buffer containing 30 mM imidazole were added to the agarose. After repeating the washing 3 times, 0.8 ml RIPA buffer containing 250 mM imidazole was added and the agarose was gently rotated in a cold room for 20 minutes. After centrifugation at 1000×g for 2 minutes, the supernatants were transferred to 1.5 ml tube and incubated with 100 μl 0.2% sodium deoxycholate and 100 μl 10% trichloroacetic acid in ice for 1 hour. After centrifugation at 12,000×g for 10 minutes at 4° C., the supernatants were removed and 1 ml cold acetone was added to the pellets followed by vortexing for 10 seconds. After one more washing with cold acetone, the pellets were dried at 37° C., and 39 μl PBS and 13 μl 4×NuPAGE LDS were added to the pellets with a final concentration of 5 mM DTT. Solubilized proteins were incubated at 65° C. for 20 minutes followed by incubation with a final concentration of 14 mM iodoacetamide for 45 minutes in the dark. 38 μl samples were loaded to 4-12% gradient SDS-PAGE for separation followed by Coomassie Blue staining. The gels were submitted to quantitative proteomics.
(§2) For in-gel digestions, gels were stained with Coomassie Blue and were excised into 8 equal segments for control and irisin lanes. Gel pieces were destained and dehydrated with 100% acetonitrile, vacuumed dried, and digested in 25 mM HEPES (pH 8.5) with 500 ng sequencing grade trypsin (Promega) and incubated for an overnight at 37° C. (Shevchenko et al. (1996) Anal. Chem. 68:850-858). Digests were treated with 1% formic acid and purified using C18 Stage-Tips as previously described (Rappsilber et al. (2007) Nat. Protoc. 2:1896-1906). Peptides were eluted with 70% acetonitrile and 1% formic acid, then dried using a speedvac. Isobaric labeling of digested peptides was accomplished using 6-plex tandem mass tag (TMT) reagents (Thermo Fisher Scientific, Rockford, Ill.). Reagents, 5.0 mg, were dissolved in 252 μl acetonitrile (ACN) and 5 μl of the solution was added to the digested peptides dissolved in 25 μl of 200 mM HEPES, pH 8.5. After 1 hour at room temperature, the reaction was quenched by adding 1 μl of 5% hydroxylamine. Labeled peptides were combined and acidified prior to C18 Stage-Tips desalting.
(§3) All LC-MS/MS experiments were performed on an Orbitrap Fusion™ Lumos mass spectrometer (Thermo Fisher Scientific, San Jose, Calif., USA) coupled with a Proxeon EASY-nLC™ 1200 LC pump (Thermo Fisher Scientific). Peptides were separated on a 100 μm inner diameter microcapillary column packed with 35 cm of Accucore™ C18 resin (1.8 μm, 100 Å, Thermo Fisher Scientific). […]

[2] = molecular target: T2, MLO-Y4 cell surface proteins (Mus musculus, UniProt P39654); conditions: co-precipitated protein Alox15 (LOX15_MOUSE)
T2 construct: endogenous in cells; host or cells: MLO-Y4
T2 sequence (P39654 1-663): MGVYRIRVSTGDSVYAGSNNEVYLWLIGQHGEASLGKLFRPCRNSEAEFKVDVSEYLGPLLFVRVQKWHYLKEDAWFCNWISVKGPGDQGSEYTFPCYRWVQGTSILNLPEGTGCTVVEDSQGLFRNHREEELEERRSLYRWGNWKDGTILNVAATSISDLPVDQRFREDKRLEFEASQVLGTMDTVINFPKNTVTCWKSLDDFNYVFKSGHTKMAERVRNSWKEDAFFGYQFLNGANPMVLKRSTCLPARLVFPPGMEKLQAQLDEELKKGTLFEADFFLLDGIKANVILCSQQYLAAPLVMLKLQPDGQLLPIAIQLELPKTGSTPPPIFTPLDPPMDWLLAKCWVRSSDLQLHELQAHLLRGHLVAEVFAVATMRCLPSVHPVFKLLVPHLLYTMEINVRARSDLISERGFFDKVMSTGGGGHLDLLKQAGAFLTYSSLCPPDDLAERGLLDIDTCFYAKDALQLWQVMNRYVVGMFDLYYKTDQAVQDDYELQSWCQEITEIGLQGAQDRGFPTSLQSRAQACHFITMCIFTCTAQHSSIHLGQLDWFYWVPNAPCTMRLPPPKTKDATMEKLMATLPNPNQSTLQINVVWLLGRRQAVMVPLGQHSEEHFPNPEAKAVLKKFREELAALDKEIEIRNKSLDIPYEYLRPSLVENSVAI
Protocol: as §1, §2, §3

[3] = molecular target: T3, MLO-Y4 cell surface proteins (Mus musculus, UniProt P60843); conditions: co-precipitated protein Eif4a1 (IF4A1_MOUSE)
T3 construct: endogenous in cells; host or cells: MLO-Y4
Protocol: as §1, §2, §3

[4] = molecular target: T4, MLO-Y4 cell surface proteins (Mus musculus, UniProt P16460); conditions: co-precipitated protein Ass1 (ASSY_MOUSE)
T4 construct: endogenous in cells; host or cells: MLO-Y4
T4 sequence (P16460 1-412): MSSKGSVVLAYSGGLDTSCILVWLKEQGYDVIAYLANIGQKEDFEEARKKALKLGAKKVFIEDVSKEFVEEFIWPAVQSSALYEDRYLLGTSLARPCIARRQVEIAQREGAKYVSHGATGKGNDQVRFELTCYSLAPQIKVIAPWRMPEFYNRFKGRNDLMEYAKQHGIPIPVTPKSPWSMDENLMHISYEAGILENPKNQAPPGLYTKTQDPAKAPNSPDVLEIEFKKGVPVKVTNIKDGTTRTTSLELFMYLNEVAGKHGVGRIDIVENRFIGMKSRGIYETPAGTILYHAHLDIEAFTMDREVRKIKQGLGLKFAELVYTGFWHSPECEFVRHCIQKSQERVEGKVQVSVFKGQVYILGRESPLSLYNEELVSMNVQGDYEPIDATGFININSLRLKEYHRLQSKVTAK
Protocol: as §1, §2, §3

T1 sequence (E9Q0C6 whole entry): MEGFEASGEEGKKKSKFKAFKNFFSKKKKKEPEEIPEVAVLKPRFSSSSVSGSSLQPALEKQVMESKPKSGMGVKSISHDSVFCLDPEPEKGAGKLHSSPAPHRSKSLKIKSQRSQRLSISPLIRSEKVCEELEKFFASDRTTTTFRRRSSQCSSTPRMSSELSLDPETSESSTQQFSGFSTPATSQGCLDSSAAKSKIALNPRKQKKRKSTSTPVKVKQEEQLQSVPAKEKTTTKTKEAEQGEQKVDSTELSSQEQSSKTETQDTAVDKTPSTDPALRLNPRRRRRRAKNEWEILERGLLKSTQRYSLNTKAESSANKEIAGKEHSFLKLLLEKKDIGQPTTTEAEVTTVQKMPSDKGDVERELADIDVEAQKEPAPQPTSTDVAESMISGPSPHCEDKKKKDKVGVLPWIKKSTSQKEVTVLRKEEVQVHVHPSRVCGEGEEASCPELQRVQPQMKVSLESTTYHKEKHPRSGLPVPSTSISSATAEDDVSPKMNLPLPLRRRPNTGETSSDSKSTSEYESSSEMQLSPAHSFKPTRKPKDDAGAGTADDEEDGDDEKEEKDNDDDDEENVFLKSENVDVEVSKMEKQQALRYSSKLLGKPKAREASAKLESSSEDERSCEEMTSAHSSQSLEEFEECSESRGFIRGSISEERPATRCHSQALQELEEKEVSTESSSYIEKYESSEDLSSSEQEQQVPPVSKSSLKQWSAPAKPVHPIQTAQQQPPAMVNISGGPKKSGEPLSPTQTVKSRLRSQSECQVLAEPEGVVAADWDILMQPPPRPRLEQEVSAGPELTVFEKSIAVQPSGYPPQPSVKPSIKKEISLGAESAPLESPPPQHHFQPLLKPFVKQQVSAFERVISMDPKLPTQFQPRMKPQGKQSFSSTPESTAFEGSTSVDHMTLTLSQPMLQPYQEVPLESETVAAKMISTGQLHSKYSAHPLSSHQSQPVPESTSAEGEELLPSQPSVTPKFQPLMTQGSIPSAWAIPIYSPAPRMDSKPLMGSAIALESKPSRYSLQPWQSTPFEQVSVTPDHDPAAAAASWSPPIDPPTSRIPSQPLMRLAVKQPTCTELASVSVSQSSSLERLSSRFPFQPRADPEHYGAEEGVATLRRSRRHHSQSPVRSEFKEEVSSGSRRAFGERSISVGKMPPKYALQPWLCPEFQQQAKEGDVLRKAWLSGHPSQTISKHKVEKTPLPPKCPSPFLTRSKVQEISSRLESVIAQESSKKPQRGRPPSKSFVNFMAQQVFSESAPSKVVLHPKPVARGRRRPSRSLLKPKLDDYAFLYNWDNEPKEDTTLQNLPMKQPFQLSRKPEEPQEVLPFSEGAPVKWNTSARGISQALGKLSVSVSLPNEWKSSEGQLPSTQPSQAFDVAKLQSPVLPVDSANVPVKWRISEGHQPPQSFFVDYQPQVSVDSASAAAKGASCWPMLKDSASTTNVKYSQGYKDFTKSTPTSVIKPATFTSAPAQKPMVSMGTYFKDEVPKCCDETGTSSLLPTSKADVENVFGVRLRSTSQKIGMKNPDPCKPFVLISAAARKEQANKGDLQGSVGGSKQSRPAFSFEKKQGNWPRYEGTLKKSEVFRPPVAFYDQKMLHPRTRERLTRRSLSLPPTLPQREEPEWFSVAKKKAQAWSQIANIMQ
T3 sequence (P60843 whole entry): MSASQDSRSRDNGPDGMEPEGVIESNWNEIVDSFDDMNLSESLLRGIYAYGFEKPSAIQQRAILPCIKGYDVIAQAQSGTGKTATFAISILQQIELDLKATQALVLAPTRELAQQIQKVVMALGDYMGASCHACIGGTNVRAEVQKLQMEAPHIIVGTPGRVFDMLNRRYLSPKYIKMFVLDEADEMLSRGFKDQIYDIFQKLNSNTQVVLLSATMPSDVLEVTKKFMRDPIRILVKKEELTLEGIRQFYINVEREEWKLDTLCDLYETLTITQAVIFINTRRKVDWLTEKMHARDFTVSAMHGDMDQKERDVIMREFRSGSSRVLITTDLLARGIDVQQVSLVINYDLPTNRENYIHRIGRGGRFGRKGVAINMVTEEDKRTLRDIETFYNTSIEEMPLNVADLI

Question: Which results are given for adipsin?
Answer: TMT signal-to-noise ratio [1]: 224.172; TMT signal-to-noise ratio [2]: 141.336; TMT signal-to-noise ratio [3]: 136.49; TMT signal-to-noise ratio [4]: 285.885
